Measurements as given in publication PMC9482650, “Quantitative fragmentomics allow affinity mapping of interactomes” (Nature Communications, 2022).

How the values were obtained:
Assay in all cases: holdup assay
Set-up in all cases: key: below the threshold = too weak to quantify, mostly under pKd 3.1 to 4
[1] = molecular target: GRID2IP_1, A4D2P6
[2] = molecular target: GRIP2_5, Q9C0E4
[3] = molecular target: NHERF4_4, Q86UT5
[4] = molecular target: T1, SHANK1, Q9Y566
T1 sequence (Q9Y566 658-767, limits assumed, looked up): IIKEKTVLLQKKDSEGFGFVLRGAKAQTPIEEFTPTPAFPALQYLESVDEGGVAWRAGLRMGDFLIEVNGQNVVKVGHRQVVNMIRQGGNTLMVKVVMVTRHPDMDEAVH

[5] = molecular target: GRID2IP_2, A4D2P6
[6] = molecular target: T2, SNTG1, Q9NSN8
T2 sequence (Q9NSN8 52-150, limits assumed, looked up): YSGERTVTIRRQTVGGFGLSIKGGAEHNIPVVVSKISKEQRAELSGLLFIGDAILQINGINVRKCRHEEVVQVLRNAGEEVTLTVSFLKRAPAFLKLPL

[7] = molecular target: T3, HTRA3, P83110
T3 sequence (P83110 354-453, limits assumed, looked up): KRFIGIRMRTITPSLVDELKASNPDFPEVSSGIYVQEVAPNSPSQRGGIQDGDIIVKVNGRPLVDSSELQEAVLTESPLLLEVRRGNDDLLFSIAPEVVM

[8] = molecular target: T4, NHERF3_3, Q5T2W1
T4 sequence (Q5T2W1 238-333, limits assumed, looked up): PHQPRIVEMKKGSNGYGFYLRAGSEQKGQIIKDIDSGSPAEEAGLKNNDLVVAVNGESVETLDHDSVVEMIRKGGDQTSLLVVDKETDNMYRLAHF

[9] = molecular target: T5, GRIP1_5, Q9Y3R0
T5 sequence (Q9Y3R0 568-668, limits assumed, looked up): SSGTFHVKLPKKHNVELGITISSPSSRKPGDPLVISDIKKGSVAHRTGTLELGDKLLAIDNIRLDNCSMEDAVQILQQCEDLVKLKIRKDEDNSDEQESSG

[10] = molecular target: T6, RHPN1, Q8TCX5
T6 sequence (Q8TCX5 508-602, limits assumed, looked up): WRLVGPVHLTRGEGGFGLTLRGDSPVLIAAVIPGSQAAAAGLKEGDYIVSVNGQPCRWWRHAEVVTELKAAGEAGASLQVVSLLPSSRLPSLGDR

[11] = molecular target: LNX1_2, Q8TBB1
[12] = molecular target: LDB3, O75112
[13] = molecular target: LNX1_1, Q8TBB1
[14] = molecular target: AHNAK1, Q09666
[15] = molecular target: T7, HTRA4, P83105
T7 sequence (P83105 378-476, limits assumed, looked up): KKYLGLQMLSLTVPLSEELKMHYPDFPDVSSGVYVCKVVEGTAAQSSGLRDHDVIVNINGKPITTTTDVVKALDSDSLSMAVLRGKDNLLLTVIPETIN

[16] = molecular target: T8, APBA1_1, Q02410
T8 sequence (Q02410 651-752, limits assumed, looked up): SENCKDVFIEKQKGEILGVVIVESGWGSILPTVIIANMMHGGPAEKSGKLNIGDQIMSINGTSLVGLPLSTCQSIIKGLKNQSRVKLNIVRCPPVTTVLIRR

[17] = molecular target: LNX1_3, Q8TBB1
[18] = molecular target: SNX27, Q96L92
[19] = molecular target: MAST2, Q6P0Q8
[20] = molecular target: MAGI3_2, Q5TCQ9
[21] = molecular target: T9, MPP6, Q9NZW5
T9 sequence (Q9NZW5 125-219, limits assumed, looked up): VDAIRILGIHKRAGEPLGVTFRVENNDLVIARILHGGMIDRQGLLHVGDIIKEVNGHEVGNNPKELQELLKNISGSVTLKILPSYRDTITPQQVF

[22] = molecular target: Inadl_10, Q8NI35
[23] = molecular target: T10, NHERF3_4, Q5T2W1
T10 sequence (Q5T2W1 373-468, limits assumed, looked up): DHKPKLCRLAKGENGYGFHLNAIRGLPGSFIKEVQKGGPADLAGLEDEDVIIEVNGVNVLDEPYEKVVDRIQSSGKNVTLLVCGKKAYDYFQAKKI

[24] = molecular target: T11, NHERF3_1, Q5T2W1
T11 sequence (Q5T2W1 4-100, limits assumed, looked up): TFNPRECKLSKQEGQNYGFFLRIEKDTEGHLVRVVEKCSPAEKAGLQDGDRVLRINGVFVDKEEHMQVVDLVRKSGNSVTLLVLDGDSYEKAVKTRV

[25] = molecular target: IL16_4, Q14005
[26] = molecular target: DLG4_3, P78352
[27] = molecular target: MAGI2_3, Q86UL8
[28] = plain residues with an end cap or a label only (N-terminal biotin on a linker: ttds)
[29] = plain residues with an end cap or a label only (N-terminal biotin on a linker: ado-ado, ttds)
[30] = plain residues with an end cap or a label only (N-terminal biotin on a linker: ahx)

Sequence of LNX1_1, Q8TBB1 (Q8TBB1 261-371): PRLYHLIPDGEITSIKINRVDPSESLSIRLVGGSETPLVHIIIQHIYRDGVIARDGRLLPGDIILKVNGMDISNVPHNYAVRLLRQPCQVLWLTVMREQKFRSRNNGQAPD
Sequence of DLG4_3, P78352 (P78352 306-403): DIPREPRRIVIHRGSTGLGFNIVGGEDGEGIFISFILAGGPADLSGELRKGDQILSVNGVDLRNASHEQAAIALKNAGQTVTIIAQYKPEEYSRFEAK
Sequence of GRID2IP_1, A4D2P6 (A4D2P6 1-87): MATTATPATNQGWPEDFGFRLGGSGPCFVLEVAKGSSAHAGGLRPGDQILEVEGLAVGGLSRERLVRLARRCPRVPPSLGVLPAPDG
Sequence of MAGI3_2, Q5TCQ9 (Q5TCQ9 398-503): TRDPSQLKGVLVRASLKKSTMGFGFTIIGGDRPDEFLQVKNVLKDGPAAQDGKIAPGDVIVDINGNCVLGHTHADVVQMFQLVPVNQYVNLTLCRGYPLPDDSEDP
Sequence of MAST2, Q6P0Q8 (Q6P0Q8 1099-1202): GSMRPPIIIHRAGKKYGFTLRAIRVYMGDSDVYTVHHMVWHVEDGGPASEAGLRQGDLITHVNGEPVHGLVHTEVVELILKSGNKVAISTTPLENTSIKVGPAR
Sequence of GRIP2_5, Q9C0E4 (Q9C0E4 544-642): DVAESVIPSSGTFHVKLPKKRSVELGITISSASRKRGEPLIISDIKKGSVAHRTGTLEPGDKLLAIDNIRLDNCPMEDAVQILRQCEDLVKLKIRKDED
Sequence of MAGI2_3, Q86UL8 (Q86UL8 600-682): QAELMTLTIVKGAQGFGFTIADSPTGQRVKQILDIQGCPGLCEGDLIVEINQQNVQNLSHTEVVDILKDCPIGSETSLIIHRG
Sequence of LNX1_3, Q8TBB1 (Q8TBB1 500-596): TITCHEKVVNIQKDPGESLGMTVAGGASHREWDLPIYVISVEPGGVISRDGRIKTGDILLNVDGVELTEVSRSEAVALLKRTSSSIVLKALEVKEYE
Sequence of LDB3, O75112 (O75112 1-94): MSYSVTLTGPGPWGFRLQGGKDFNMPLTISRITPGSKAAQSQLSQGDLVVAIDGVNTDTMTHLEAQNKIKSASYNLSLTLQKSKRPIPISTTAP
Sequence of NHERF4_4, Q86UT5 (Q86UT5 464-550): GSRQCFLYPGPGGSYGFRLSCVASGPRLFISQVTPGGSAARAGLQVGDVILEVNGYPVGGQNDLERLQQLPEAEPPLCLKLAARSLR
Sequence of IL16_4, Q14005 (Q14005 1229-1329): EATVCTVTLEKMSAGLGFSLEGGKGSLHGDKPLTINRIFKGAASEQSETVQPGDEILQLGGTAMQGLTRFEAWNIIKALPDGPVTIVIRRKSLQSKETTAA
Sequence of AHNAK1, Q09666 (Q09666 4-100): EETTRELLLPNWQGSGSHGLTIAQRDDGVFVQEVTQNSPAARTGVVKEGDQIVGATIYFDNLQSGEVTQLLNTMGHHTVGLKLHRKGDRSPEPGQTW
Sequence of GRID2IP_2, A4D2P6 (A4D2P6 272-370): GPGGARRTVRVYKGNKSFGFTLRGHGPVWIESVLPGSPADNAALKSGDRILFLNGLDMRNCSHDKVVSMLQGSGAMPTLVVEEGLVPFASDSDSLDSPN
Sequence of LNX1_2, Q8TBB1 (Q8TBB1 371-470): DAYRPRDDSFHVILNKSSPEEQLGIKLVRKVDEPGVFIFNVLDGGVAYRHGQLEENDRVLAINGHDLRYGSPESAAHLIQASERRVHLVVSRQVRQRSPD
Sequence of Inadl_10, Q8NI35 (Q8NI35 1673-1763): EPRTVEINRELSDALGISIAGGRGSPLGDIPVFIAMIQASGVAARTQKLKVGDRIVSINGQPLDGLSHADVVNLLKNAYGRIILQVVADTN

## PPRQRSETQV [HPV82-E6, Q9IR59]
[1]; [28]
  pKd: below the threshold
[2]; [28]
  pKd: below the threshold
[3]; [28]
  pKd: below the threshold
[4]; [28]
  pKd: below the threshold
[5]; [28]
  pKd: below the threshold
[6]; [28]
  pKd: 3.99
[7]; [28]
  pKd: below the threshold
[8]; [28]
  pKd: below the threshold
[9]; [28]
  pKd: below the threshold
[10]; [28]
  pKd: 3.72
[11]; [28]
  pKd: below the threshold
[12]; [28]
  pKd: below the threshold
[13]; [28]
  pKd: below the threshold
[14]; [28]
  pKd: below the threshold
[15]; [28]
  pKd: below the threshold
[16]; [28]
  pKd: below the threshold
[17]; [28]
  pKd: below the threshold
[18]; [28]
  pKd: 4.67
[19]; [28]
  pKd: 5.18
[20]; [28]
  pKd: 5.68
[21]; [28]
  pKd: below the threshold
[22]; [28]
  pKd: below the threshold
[23]; [28]
  pKd: below the threshold
[24]; [28]
  pKd: 4.03
[25]; [28]
  pKd: below the threshold
[26]; [28]
  pKd: 4.43
[27]; [28]
  pKd: 3.73

## SNAKAVETDV [KCNA4, P22459]
[1]; [29]
  pKd: below the threshold
[2]; [29]
  pKd: below the threshold
[3]; [29]
  pKd: below the threshold
[4]; [29]
  pKd: below the threshold
[5]; [29]
  pKd: below the threshold
[6]; [29]
  pKd: 4.89
[7]; [29]
  pKd: below the threshold
[8]; [29]
  pKd: below the threshold
[9]; [29]
  pKd: below the threshold
[10]; [29]
  pKd: 4.15
[11]; [29]
  pKd: below the threshold
[12]; [29]
  pKd: below the threshold
[13]; [29]
  pKd: 3.77
[14]; [29]
  pKd: below the threshold
[15]; [29]
  pKd: below the threshold
[16]; [29]
  pKd: below the threshold
[17]; [29]
  pKd: below the threshold
[18]; [29]
  pKd: below the threshold
[19]; [29]
  pKd: 5.18
[20]; [29]
  pKd: 3.9
[21]; [29]
  pKd: below the threshold
[22]; [29]
  pKd: below the threshold
[23]; [29]
  pKd: below the threshold
[24]; [29]
  pKd: below the threshold
[25]; [29]
  pKd: below the threshold
[26]; [29]
  pKd: below the threshold
[27]; [29]
  pKd: 3.54

## SSIDLWETAL [SLC15A5, A6NIM6]
[1]; [28]
  pKd: below the threshold
[2]; [28]
  pKd: below the threshold
[3]; [28]
  pKd: 4.4
[4]; [28]
  pKd: 5.38
[5]; [28]
  pKd: 4.54
[6]; [28]
  pKd: 5.41
[7]; [28]
  pKd: below the threshold
[8]; [28]
  pKd: below the threshold
[9]; [28]
  pKd: below the threshold
[10]; [28]
  pKd: 5
[11]; [28]
  pKd: below the threshold
[12]; [28]
  pKd: 3.92
[13]; [28]
  pKd: 3.97
[14]; [28]
  pKd: below the threshold
[15]; [28]
  pKd: below the threshold
[16]; [28]
  pKd: below the threshold
[17]; [28]
  pKd: below the threshold
[18]; [28]
  pKd: 5.92
[19]; [28]
  pKd: 5.44
[20]; [28]
  pKd: 3.81
[21]; [28]
  pKd: below the threshold
[22]; [28]
  pKd: 4.17
[23]; [28]
  pKd: 4.94
[24]; [28]
  pKd: 6.25
[25]; [28]
  pKd: below the threshold
[26]; [28]
  pKd: below the threshold
[27]; [28]
  pKd: below the threshold

## SKKNELFSNL [NHERF1, O14745]
[1]; [30]
  pKd: below the threshold
[2]; [30]
  pKd: below the threshold
[3]; [30]
  pKd: below the threshold
[4]; [30]
  pKd: below the threshold
[5]; [30]
  pKd: below the threshold
[6]; [30]
  pKd: below the threshold
[7]; [30]
  pKd: below the threshold
[8]; [30]
  pKd: below the threshold
[9]; [30]
  pKd: below the threshold
[10]; [30]
  pKd: 3.76
[11]; [30]
  pKd: below the threshold
[12]; [30]
  pKd: below the threshold
[13]; [30]
  pKd: below the threshold
[14]; [30]
  pKd: below the threshold
[15]; [30]
  pKd: below the threshold
[16]; [30]
  pKd: below the threshold
[17]; [30]
  pKd: below the threshold
[18]; [30]
  pKd: below the threshold
[19]; [30]
  pKd: 4.5
[20]; [30]
  pKd: below the threshold
[21]; [30]
  pKd: below the threshold
[22]; [30]
  pKd: below the threshold
[23]; [30]
  pKd: below the threshold
[24]; [30]
  pKd: below the threshold
[25]; [30]
  pKd: below the threshold
[26]; [30]
  pKd: below the threshold
[27]; [30]
  pKd: below the threshold
